Legend:
Assay in all cases: cross-linking; BMOE (0.64 mM) cross-linking of engineered cysteine pairs; 0.7 uM cohesin (Smc1, Smc3, and Scc1) and Scc2 in 25 mM HEPES pH 7.5, 50 mM NaCl, 1 mM MgCl2, 1 mM TCEP, 5% glycerol; 24°C, 5 min; with or without 10 mM ATP and 60 nM supercoiled pUC19; SDS-PAGE
Conditions in all cases: both partners purified
[1] = target: T1, cohesin (Smc1-His E1102C, Smc3, Scc1-StrepII) (S. cerevisiae, UniProt P32908 1-1225; P47037 1-1230; Q12158 1-566, E1102C)
T1 construct: Smc1, cohesin subunit, S. cerevisiae; Smc3, cohesin subunit, S. cerevisiae; Scc1 (kleisin subunit of cohesin), S. cerevisiae; Tied to the cross-linking experiment by its substitution; also called Smc1E1102C; cohesin (Smc1, Smc3, and Scc1); source: prepared as described in Collier et al., 2020 (pACEbac1i plasmid); purified; copies: + +
T1 sequence (P32908 whole entry E1102C, chain 1 of 3): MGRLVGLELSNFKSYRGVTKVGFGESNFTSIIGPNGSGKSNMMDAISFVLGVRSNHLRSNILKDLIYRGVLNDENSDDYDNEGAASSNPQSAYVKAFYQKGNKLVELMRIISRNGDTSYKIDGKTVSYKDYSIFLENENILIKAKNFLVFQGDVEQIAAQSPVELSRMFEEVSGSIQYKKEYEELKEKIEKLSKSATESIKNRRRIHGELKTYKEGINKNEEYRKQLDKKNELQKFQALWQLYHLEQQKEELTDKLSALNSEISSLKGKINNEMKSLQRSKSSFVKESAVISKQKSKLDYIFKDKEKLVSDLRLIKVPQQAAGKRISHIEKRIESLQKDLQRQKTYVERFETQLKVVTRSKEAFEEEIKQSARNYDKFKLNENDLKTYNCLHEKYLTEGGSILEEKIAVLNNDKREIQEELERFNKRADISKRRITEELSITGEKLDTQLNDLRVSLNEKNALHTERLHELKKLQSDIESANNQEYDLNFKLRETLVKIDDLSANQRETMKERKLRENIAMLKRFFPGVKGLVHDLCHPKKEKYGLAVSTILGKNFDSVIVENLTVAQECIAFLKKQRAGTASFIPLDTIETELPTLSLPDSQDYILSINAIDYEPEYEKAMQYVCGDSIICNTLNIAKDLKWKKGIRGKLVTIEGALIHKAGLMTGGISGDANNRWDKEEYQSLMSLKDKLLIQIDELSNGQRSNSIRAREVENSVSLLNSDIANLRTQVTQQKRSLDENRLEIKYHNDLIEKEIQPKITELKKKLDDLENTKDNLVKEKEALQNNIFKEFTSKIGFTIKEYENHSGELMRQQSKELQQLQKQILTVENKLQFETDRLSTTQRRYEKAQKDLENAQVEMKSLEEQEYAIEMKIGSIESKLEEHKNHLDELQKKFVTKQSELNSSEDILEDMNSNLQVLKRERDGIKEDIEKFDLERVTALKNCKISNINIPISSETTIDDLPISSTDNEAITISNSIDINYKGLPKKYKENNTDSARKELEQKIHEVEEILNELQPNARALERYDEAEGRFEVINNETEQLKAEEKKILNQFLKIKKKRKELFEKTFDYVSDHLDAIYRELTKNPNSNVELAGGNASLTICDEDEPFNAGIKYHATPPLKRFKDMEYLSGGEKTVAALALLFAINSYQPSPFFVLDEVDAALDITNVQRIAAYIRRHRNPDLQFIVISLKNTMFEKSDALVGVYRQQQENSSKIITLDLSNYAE
T1 sequence (P47037 whole entry, chain 2 of 3): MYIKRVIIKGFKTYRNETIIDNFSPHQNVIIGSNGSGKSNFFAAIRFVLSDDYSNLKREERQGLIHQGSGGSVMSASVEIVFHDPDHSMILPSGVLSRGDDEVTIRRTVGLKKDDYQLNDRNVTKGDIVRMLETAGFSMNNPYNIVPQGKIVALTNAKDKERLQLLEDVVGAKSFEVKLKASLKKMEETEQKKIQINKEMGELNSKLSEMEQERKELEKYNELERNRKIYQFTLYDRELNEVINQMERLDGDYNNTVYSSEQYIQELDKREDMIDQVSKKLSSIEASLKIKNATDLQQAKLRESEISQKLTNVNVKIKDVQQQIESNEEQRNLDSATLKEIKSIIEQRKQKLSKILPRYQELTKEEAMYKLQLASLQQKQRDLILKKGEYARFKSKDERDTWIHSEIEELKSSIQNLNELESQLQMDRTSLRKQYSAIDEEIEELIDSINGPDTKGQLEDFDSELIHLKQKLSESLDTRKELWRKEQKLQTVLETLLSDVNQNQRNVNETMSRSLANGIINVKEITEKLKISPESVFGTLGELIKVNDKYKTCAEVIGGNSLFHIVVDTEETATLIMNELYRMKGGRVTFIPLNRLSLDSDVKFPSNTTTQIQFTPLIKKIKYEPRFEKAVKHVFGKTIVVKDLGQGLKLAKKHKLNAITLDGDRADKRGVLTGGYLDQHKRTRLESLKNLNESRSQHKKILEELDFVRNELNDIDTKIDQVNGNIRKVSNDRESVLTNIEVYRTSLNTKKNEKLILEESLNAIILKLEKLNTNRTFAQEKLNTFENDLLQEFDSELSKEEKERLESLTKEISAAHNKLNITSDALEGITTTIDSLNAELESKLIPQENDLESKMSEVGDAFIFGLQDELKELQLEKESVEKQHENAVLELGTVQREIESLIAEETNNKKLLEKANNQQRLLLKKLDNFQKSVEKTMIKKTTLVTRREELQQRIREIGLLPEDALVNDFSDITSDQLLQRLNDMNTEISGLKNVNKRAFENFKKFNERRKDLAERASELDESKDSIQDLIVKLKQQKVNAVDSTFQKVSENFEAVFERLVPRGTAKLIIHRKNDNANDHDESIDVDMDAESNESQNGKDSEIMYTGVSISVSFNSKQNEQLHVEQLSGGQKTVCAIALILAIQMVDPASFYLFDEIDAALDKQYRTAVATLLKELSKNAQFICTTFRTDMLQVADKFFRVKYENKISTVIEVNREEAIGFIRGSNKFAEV
T1 sequence (Q12158 whole entry, chain 3 of 3): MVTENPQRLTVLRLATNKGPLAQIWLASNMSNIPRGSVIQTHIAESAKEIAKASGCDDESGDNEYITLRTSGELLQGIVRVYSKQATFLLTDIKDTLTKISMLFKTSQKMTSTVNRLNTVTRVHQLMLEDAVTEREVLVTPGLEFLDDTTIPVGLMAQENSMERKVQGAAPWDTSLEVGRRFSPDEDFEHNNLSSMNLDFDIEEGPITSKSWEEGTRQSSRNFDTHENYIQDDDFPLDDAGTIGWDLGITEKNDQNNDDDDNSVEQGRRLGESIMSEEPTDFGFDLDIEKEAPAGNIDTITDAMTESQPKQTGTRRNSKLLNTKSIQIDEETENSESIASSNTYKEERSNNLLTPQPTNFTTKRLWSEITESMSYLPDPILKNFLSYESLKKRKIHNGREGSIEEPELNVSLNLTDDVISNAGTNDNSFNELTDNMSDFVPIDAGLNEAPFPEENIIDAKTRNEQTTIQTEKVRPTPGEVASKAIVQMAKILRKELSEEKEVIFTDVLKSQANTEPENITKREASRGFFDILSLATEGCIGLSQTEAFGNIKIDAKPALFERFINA

[2] = target: T2, cohesin (Smc1, Smc3 S72C, Scc1-StrepII) (S. cerevisiae, UniProt P32908 1-1225; P47037 1-1230; Q12158 1-566, S72C)
T2 construct: Smc1, cohesin subunit, S. cerevisiae; Smc3, cohesin subunit, S. cerevisiae; Scc1 (kleisin subunit of cohesin), S. cerevisiae; Tied to the cross-linking experiment by its substitution; also called cohesin (Smc1, Smc3, and Scc1); source: prepared as described in Collier et al., 2020 (pACEbac1i plasmid); purified; copies: + +
T2 sequence (P32908 whole entry, chain 1 of 3): as the sequence (P32908 whole entry E1102C, chain 1 of 3) above, with C1102E counted along it
T2 sequence (P47037 whole entry S72C, chain 2 of 3): as the sequence (P47037 whole entry, chain 2 of 3) above, with S72C counted along it
T2 sequence (Q12158 whole entry, chain 3 of 3): as the sequence (Q12158 whole entry, chain 3 of 3) above

[3] = target: T3, cohesin (Smc3 K1004C, Smc1, Scc1-StrepII) (S. cerevisiae, UniProt P32908 1-1225; P47037 1-1230; Q12158 1-566, K1004C)
T3 construct: Smc1, cohesin subunit, S. cerevisiae; Smc3, cohesin subunit, S. cerevisiae; Scc1 (kleisin subunit of cohesin), S. cerevisiae; Tied to the cross-linking experiment by its substitution; also called cohesin (Smc1, Smc3, and Scc1); source: prepared as described in Collier et al., 2020 (pACEbac1i plasmid); purified; copies: + +
T3 sequence (P32908 whole entry, stated change not applied, chain 1 of 3): as the sequence (P32908 whole entry E1102C, chain 1 of 3) above, with C1102E counted along it
T3 sequence (P47037 whole entry K1004C, chain 2 of 3): as the sequence (P47037 whole entry, chain 2 of 3) above, with K1004C counted along it
T3 sequence (Q12158 whole entry, chain 3 of 3): as the sequence (Q12158 whole entry, chain 3 of 3) above

B1: Scc2 133-1493-StrepII T1281C (domain or fragment, S. cerevisiae, UniProt Q04002 133-1493, looked up)
chain: KSEIVSRPEAKHKLESVTSNAGNLSFNDNSSNKKTKTSTGVTMTQANLAEQYLNDLKNILDIVGFDQNSAEIGNIEYWLQLPNKKFVLTTNCLTKLQMTIKNITDNPQLSNSIEITWLLRLLDVMVCNIKFSKSSLKMGLDDSMLRYIALLSTIVLFNIFLLGKNDSNLHRESYIMEPVNFLSDLIESLKILTIEYGSLKIEFDTFQEALELLPKYIRNGPFLDDNVTAKLVYIFSDLLMNNDIEATTNIQFQSFWDNVKRISSDILVSLFGSFDQQRGFIIEELLSHIEKLPTKRIQKKLRKVGNQNIYITDFTFTLMSMLENINCYSFCNQMKDIAPENIDLLKNEYKKQEEFLFNIVEHINDTILERFFKNPSALRYVIDNFVQDLLLLISSPQWPVTEKILSSLLKRLLSVYSPSMQVSANIETICLQLIGNIGSTIFDIKCSTRDHEDNNLIKMINYPETLPHFFKSFEECIAYNETIKCRRSATRFLWNLRLGTILILEEYTKDAKEQIITVDNELKKILEQIKDGGLGPELENREADFSTIKLDYFSILHAFELLNLYDPYLKLILSLLAKDKIKLRSTAIKCLSMLASKDKVILSNPMVKETIHRRLNDSSASVKDAILDLVSINSSYFEFYQQINNNYNDDSIMVRKHVLRINEKMYDETNDIVTKVYVIARILMKIEDEEDNIIDMARLILLNRWILKVHEVLDQPEKLKEISSSVLLVMSRVAIMNEKCSQLFDLFLNFYLLNKEAHSKEAYDKITHVLTILTDFLVQKIVELNSDDTNEKNSIVDKQNFLNLLAKFADSTVSFLTKDHITALYPYMVSDEKSDFHYYILQVFRCTFEKLANFKQKFLYDLETTLLSRLPKMNVREIDEAMPLIWSVATHRHDTARVAKACSSCLSHLHPYINKANNEEAAIVVDGKLQRLIYLSTGFARFCFPKPSNDKIAFLQEGETLYEHITKCLLVLSKDKITHVIRRVAVKNLTKLCGNHPKLFNSRHVLHLLDKEFQSDQLDIKLVILESLYDLFLLEERKSVRNTGVNSTLSSNSILKKKLLKTNRVEFANDGVCSALATRFLDNILQLCLLRDLKNSLVAIRLLKLILKFGYTNPSHSIPTVIALFASTSQYIRHVAYELLEDLFEKYECLVFSSLSRGVTKAIHYSIHTDEKYYYKHDHFLSLLEKLCGTGKKNGPKFFKVLKRIMQSYLDDITDLTSTNSSVQKSIFVLCTNISNITFVSQYDLVSLLKTIDLTTDRLKEVIMDEIGDNVSSLSVSEEKLSGIILIQLSLQDLGTYLLHLYGLRDDVLLLDIVEESELKNKQLPAKKPDISKFSAQLENIEQYSSNGKLLTYFRKHVKDT
notes: Scc2, cohesin loader subunit, S. cerevisiae, residues 133-1493; pACEbac1 is a baculovirus transfer vector, so insect cells are surmised; also called Scc2T1281C; source: prepared as described in Collier et al., 2020 (pACEbac1 plasmid); purified
binding result [1]: binds

B2: Scc2 133-1493-StrepII E819C (domain or fragment, S. cerevisiae, UniProt Q04002 133-1493, looked up)
chain: KSEIVSRPEAKHKLESVTSNAGNLSFNDNSSNKKTKTSTGVTMTQANLAEQYLNDLKNILDIVGFDQNSAEIGNIEYWLQLPNKKFVLTTNCLTKLQMTIKNITDNPQLSNSIEITWLLRLLDVMVCNIKFSKSSLKMGLDDSMLRYIALLSTIVLFNIFLLGKNDSNLHRESYIMEPVNFLSDLIESLKILTIEYGSLKIEFDTFQEALELLPKYIRNGPFLDDNVTAKLVYIFSDLLMNNDIEATTNIQFQSFWDNVKRISSDILVSLFGSFDQQRGFIIEELLSHIEKLPTKRIQKKLRKVGNQNIYITDFTFTLMSMLENINCYSFCNQMKDIAPENIDLLKNEYKKQEEFLFNIVEHINDTILERFFKNPSALRYVIDNFVQDLLLLISSPQWPVTEKILSSLLKRLLSVYSPSMQVSANIETICLQLIGNIGSTIFDIKCSTRDHEDNNLIKMINYPETLPHFFKSFEECIAYNETIKCRRSATRFLWNLRLGTILILEEYTKDAKEQIITVDNELKKILEQIKDGGLGPELENREADFSTIKLDYFSILHAFELLNLYDPYLKLILSLLAKDKIKLRSTAIKCLSMLASKDKVILSNPMVKETIHRRLNDSSASVKDAILDLVSINSSYFEFYQQINNNYNDDSIMVRKHVLRINEKMYDETNDIVTKVYVIARILMKICDEEDNIIDMARLILLNRWILKVHEVLDQPEKLKEISSSVLLVMSRVAIMNEKCSQLFDLFLNFYLLNKEAHSKEAYDKITHVLTILTDFLVQKIVELNSDDTNEKNSIVDKQNFLNLLAKFADSTVSFLTKDHITALYPYMVSDEKSDFHYYILQVFRCTFEKLANFKQKFLYDLETTLLSRLPKMNVREIDEAMPLIWSVATHRHDTARVAKACSSCLSHLHPYINKANNEEAAIVVDGKLQRLIYLSTGFARFCFPKPSNDKIAFLQEGETLYEHITKCLLVLSKDKITHVIRRVAVKNLTKLCGNHPKLFNSRHVLHLLDKEFQSDQLDIKLVILESLYDLFLLEERKSVRNTGVNSTLSSNSILKKKLLKTNRVEFANDGVCSALATRFLDNILQLCLLRDLKNSLVAIRLLKLILKFGYTNPSHSIPTVIALFASTSQYIRHVAYELLEDLFEKYETLVFSSLSRGVTKAIHYSIHTDEKYYYKHDHFLSLLEKLCGTGKKNGPKFFKVLKRIMQSYLDDITDLTSTNSSVQKSIFVLCTNISNITFVSQYDLVSLLKTIDLTTDRLKEVIMDEIGDNVSSLSVSEEKLSGIILIQLSLQDLGTYLLHLYGLRDDVLLLDIVEESELKNKQLPAKKPDISKFSAQLENIEQYSSNGKLLTYFRKHVKDT
notes: Scc2, cohesin loader subunit, S. cerevisiae, residues 133-1493; also called Scc2E819C; source: prepared as described in Collier et al., 2020 (pACEbac1 plasmid); purified
binding result [2]: binds

B3: Scc2 133-1493-StrepII D369C (domain or fragment, S. cerevisiae, UniProt Q04002 133-1493, looked up)
chain: KSEIVSRPEAKHKLESVTSNAGNLSFNDNSSNKKTKTSTGVTMTQANLAEQYLNDLKNILDIVGFDQNSAEIGNIEYWLQLPNKKFVLTTNCLTKLQMTIKNITDNPQLSNSIEITWLLRLLDVMVCNIKFSKSSLKMGLDDSMLRYIALLSTIVLFNIFLLGKNDSNLHRESYIMEPVNFLSDLIESLKILTIEYGSLKIEFDTFQEALELLPKYIRNGPFLDDNVTAKLVYIFSCLLMNNDIEATTNIQFQSFWDNVKRISSDILVSLFGSFDQQRGFIIEELLSHIEKLPTKRIQKKLRKVGNQNIYITDFTFTLMSMLENINCYSFCNQMKDIAPENIDLLKNEYKKQEEFLFNIVEHINDTILERFFKNPSALRYVIDNFVQDLLLLISSPQWPVTEKILSSLLKRLLSVYSPSMQVSANIETICLQLIGNIGSTIFDIKCSTRDHEDNNLIKMINYPETLPHFFKSFEECIAYNETIKCRRSATRFLWNLRLGTILILEEYTKDAKEQIITVDNELKKILEQIKDGGLGPELENREADFSTIKLDYFSILHAFELLNLYDPYLKLILSLLAKDKIKLRSTAIKCLSMLASKDKVILSNPMVKETIHRRLNDSSASVKDAILDLVSINSSYFEFYQQINNNYNDDSIMVRKHVLRINEKMYDETNDIVTKVYVIARILMKIEDEEDNIIDMARLILLNRWILKVHEVLDQPEKLKEISSSVLLVMSRVAIMNEKCSQLFDLFLNFYLLNKEAHSKEAYDKITHVLTILTDFLVQKIVELNSDDTNEKNSIVDKQNFLNLLAKFADSTVSFLTKDHITALYPYMVSDEKSDFHYYILQVFRCTFEKLANFKQKFLYDLETTLLSRLPKMNVREIDEAMPLIWSVATHRHDTARVAKACSSCLSHLHPYINKANNEEAAIVVDGKLQRLIYLSTGFARFCFPKPSNDKIAFLQEGETLYEHITKCLLVLSKDKITHVIRRVAVKNLTKLCGNHPKLFNSRHVLHLLDKEFQSDQLDIKLVILESLYDLFLLEERKSVRNTGVNSTLSSNSILKKKLLKTNRVEFANDGVCSALATRFLDNILQLCLLRDLKNSLVAIRLLKLILKFGYTNPSHSIPTVIALFASTSQYIRHVAYELLEDLFEKYETLVFSSLSRGVTKAIHYSIHTDEKYYYKHDHFLSLLEKLCGTGKKNGPKFFKVLKRIMQSYLDDITDLTSTNSSVQKSIFVLCTNISNITFVSQYDLVSLLKTIDLTTDRLKEVIMDEIGDNVSSLSVSEEKLSGIILIQLSLQDLGTYLLHLYGLRDDVLLLDIVEESELKNKQLPAKKPDISKFSAQLENIEQYSSNGKLLTYFRKHVKDT
notes: Scc2, cohesin loader subunit, S. cerevisiae, residues 133-1493; also called Scc2D369C; source: prepared as described in Collier et al., 2020 (pACEbac1 plasmid); purified
binding result [3]: binds

Reference: article PMC9467508, “DNA passes through cohesin’s hinge as well as its Smc3–kleisin interface” (eLife, 2022)
